± gives the standard deviation of the averaged measurements.
Test system: Saccharomyces cerevisiae
Test: protein stability index of tFT-peptide fusion (C-terminal peptide) (PSI (0-1 scale)); higher = more stable (slower turnover)
Conditions: genetic background: wild type; temperature: 30 C
Experimental: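 Multiplexed protein stability (MPS) profiling in S. cerevisiae. Random 12-aa peptides (tFT-X12 library) are fused to the C-terminus of a sfGFP-mCherry tandem fluorescent timer, after mCherry and a GGGS linker. Cells are FACS-sorted into 8 mCherry/sfGFP bins and deep-sequenced. The protein stability index (PSI) is the read-weighted bin average, scaled from 0 (unstable) to 1 (stable). Only peptides with >10 reads are reported; cells were grown at 30 °C in SC-His with glucose.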
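Also: PSI is a weighted mean of sequencing reads over stability bins, variants kept only with over 10 reads, mCherry proximal and sfGFP distal, peptide attached via GGGS linker.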

Question: CRPVPGGLFVVS was tested. Which protein stability index did it give?
Answer: 0.669 ± 0.064

Question: TDNVVAEKRKSK was tested. Which protein stability index did it give?
Answer: 0.701 ± 0.18

Question: How did the protein stability index turn out when CVSWFWVGYWWG was run?
Answer: 0.516 ± 0.0086

Question: With WGDDRIRVCVRG as the sequence, how does the protein stability index read?
Answer: 0.611 ± 0.035

Question: How did the protein stability index turn out when VVLWLASGVGGG was run?
Answer: 0.75 ± 0.061

Question: Which protein stability index does the source give for RCHIPGRIVKTR here?
Answer: 0.628 ± 0.046

Question: Which protein stability index does the source give for GPPSRPPRRTAP here?
Answer: 0.707 ± 0.14

Question: For SFYSSPTVPFLP, which protein stability index is on record?
Answer: 0.717 ± 0.044

Question: How did the protein stability index turn out when GRLWVGGSVGGV was run?
Answer: 0.669 ± 0.012

Question: Which protein stability index does the source give for KTKKNKQKSKKK here?
Answer: 0.705 ± 0.034

Question: GAGWCDGGRGGV was tested. Which protein stability index did it give?
Answer: 0.6747 ± 0.0014

Question: With ARLRSTPVVLPT as the sequence, how does the protein stability index read?
Answer: 0.668 ± 0.024

Question: VAAFGGGGTNGV was tested. Which protein stability index did it give?
Answer: 0.665 ± 0.075

Question: Which protein stability index does the source give for PYPLSSLSPSRP here?
Answer: 0.702 ± 0.11

Question: For PPPLPASPPPPY, which protein stability index is on record?
Answer: 0.683 ± 0.035

Question: With PGSADGPATYPL as the sequence, how does the protein stability index read?
Answer: 0.65 ± 0.03

Question: SPSPQPLRRAHP was tested. Which protein stability index did it give?
Answer: 0.698 ± 0.043

Question: Which protein stability index does the source give for LLPLPCPPFPHS here?
Answer: 0.674 ± 0.024

Question: For FCTDFDTLCREC, which protein stability index is on record?
Answer: 0.647 ± 0.021

Question: With PPPPSLPHTIGP as the sequence, how does the protein stability index read?
Answer: 0.643 ± 0.042

Question: Which protein stability index does the source give for CLSAPFRSLLFL here?
Answer: 0.585 ± 0.051

Question: Which protein stability index does the source give for PQCSLPLPFTLL here?
Answer: 0.61363 ± 0.00047

Question: With WGVWYGGAVRVG as the sequence, how does the protein stability index read?
Answer: 0.5 ± 0.052

Question: WRLGEREGWKAG was tested. Which protein stability index did it give?
Answer: 0.615 ± 0.0077

Question: For VGDCVVRGLWLS, which protein stability index is on record?
Answer: 0.639 ± 0.03

Question: QDISESLLRLLR was tested. Which protein stability index did it give?
Answer: 0.7119 ± 0.0019

Question: For FLDFLFLLVPSV, which protein stability index is on record?
Answer: 0.554 ± 0.019

Question: With QKKKDKKKQNRT as the sequence, how does the protein stability index read?
Answer: 0.666 ± 0.029

Question: HALFPRAPSPPW was tested. Which protein stability index did it give?
Answer: 0.7513 ± 0.0055

Question: How did the protein stability index turn out when PSPPPPPLPPAG was run?
Answer: 0.663 ± 0.097

Question: With PPPPPRPPAGFL as the sequence, how does the protein stability index read?
Answer: 0.924 ± 0.095

Question: Which protein stability index does the source give for SKKKKRRKEQEK here?
Answer: 0.745 ± 0.03

Question: How did the protein stability index turn out when LPSLLPESGLCF was run?
Answer: 0.604 ± 0.0086

Question: With RQAIGRDTPRDP as the sequence, how does the protein stability index read?
Answer: 0.649 ± 0.0073

Question: Which protein stability index does the source give for MANYIVEGGEPY here?
Answer: 0.723 ± 0.025

Question: SQMCHREESVTV was tested. Which protein stability index did it give?
Answer: 0.712 ± 0.004

Question: How did the protein stability index turn out when GRSIKGLLYQSL was run?
Answer: 0.681 ± 0.025

Question: For QTRRQKDAEHPR, which protein stability index is on record?
Answer: 0.714 ± 0.023

Question: Which protein stability index does the source give for TSLYGRDEETKV here?
Answer: 0.599 ± 0.077

Question: Which protein stability index does the source give for PPPPLAPSPPPS here?
Answer: 0.6542 ± 0.0025

Question: Which protein stability index does the source give for SHSRRSNMTLFV here?
Answer: 0.721 ± 0.073

Question: Which protein stability index does the source give for KKDIYRVGLKVR here?
Answer: 0.618 ± 0.011

Question: CPPGFPRPSSPH was tested. Which protein stability index did it give?
Answer: 0.689 ± 0.028

Question: How did the protein stability index turn out when SSPLPPPPFAPL was run?
Answer: 0.702 ± 0.022

Question: How did the protein stability index turn out when SRPIPSPPPRPV was run?
Answer: 0.6473 ± 0.002

Question: PTPSPPLPPITP was tested. Which protein stability index did it give?
Answer: 0.773 ± 0.024

Question: For LWCCVFGLPSRG, which protein stability index is on record?
Answer: 0.696 ± 0.072

Question: With RTNGNIKNVNIE as the sequence, how does the protein stability index read?
Answer: 0.684 ± 0.07

Question: How did the protein stability index turn out when GTVWQSNSGAAT was run?
Answer: 0.68 ± 0.028

Question: For LVGSRGCGKIVW, which protein stability index is on record?
Answer: 0.6 ± 0.026

Question: How did the protein stability index turn out when YVVPLGIPPFKD was run?
Answer: 0.6591 ± 0.00099

Question: PALPFPPLTAFH was tested. Which protein stability index did it give?
Answer: 0.683 ± 0.036

Question: Which protein stability index does the source give for LICQNPVADPRT here?
Answer: 0.711 ± 0.042

Question: LEIRKKGNKIRE was tested. Which protein stability index did it give?
Answer: 0.6 ± 0.041

Question: For VPSLPSPCSSCA, which protein stability index is on record?
Answer: 0.667 ± 0.046

Question: Which protein stability index does the source give for THPLPAPAPLRP here?
Answer: 0.762 ± 0.027

Question: SPSPPPRRYLPL was tested. Which protein stability index did it give?
Answer: 0.757 ± 0.073

Question: How did the protein stability index turn out when WERGKGGLVMEG was run?
Answer: 0.646 ± 0.0067

Question: GFSLSGRFFLRC was tested. Which protein stability index did it give?
Answer: 0.708 ± 0.013

Question: For RLYGCNYAQSRR, which protein stability index is on record?
Answer: 0.712 ± 0.047

Question: Which protein stability index does the source give for RVAWAGGGAAGS here?
Answer: 0.667 ± 0.065

Question: For KRWKSKYELGST, which protein stability index is on record?
Answer: 0.68 ± 0.063

Question: How did the protein stability index turn out when VEARKKTLNTGP was run?
Answer: 0.713 ± 0.033

Question: Which protein stability index does the source give for RFGLRVLGGACR here?
Answer: 0.591 ± 0.071

Question: Which protein stability index does the source give for TDGVVRPQRQAT here?
Answer: 0.69 ± 0.0093

Question: Which protein stability index does the source give for PTPCCFPHPPPT here?
Answer: 0.709 ± 0.02

Question: How did the protein stability index turn out when FILSPGHFHRVL was run?
Answer: 0.688 ± 0.076

Question: Which protein stability index does the source give for LIHGRFWVIRVD here?
Answer: 0.616 ± 0.0092

Question: For VCFSPVARRDVY, which protein stability index is on record?
Answer: 0.771 ± 0.049

Question: Which protein stability index does the source give for APPPAPPLHPPS here?
Answer: 0.739 ± 0.022

Question: Which protein stability index does the source give for STSACPTPRTCS here?
Answer: 0.6192 ± 0.001

Question: DDDHRKITGTSR was tested. Which protein stability index did it give?
Answer: 0.707 ± 0.091

Question: VFVRVVGDLRWE was tested. Which protein stability index did it give?
Answer: 0.578 ± 0.045

Question: For PHLPPLPPAPPP, which protein stability index is on record?
Answer: 0.724 ± 0.12

Question: With VCGNRLSATAIT as the sequence, how does the protein stability index read?
Answer: 0.684 ± 0.084

Question: Which protein stability index does the source give for HFSRNYINENVS here?
Answer: 0.716 ± 0.04

Question: Which protein stability index does the source give for EGEEVNTGGEEA here?
Answer: 0.642 ± 0.017

Question: Which protein stability index does the source give for SSPARASLTRPA here?
Answer: 0.674 ± 0.038

Question: How did the protein stability index turn out when GGGAWGGMCGVV was run?
Answer: 0.717 ± 0.047

Question: How did the protein stability index turn out when RGLIVGMGAGMV was run?
Answer: 0.671 ± 0.015

Question: For KVNWVKAAKKNA, which protein stability index is on record?
Answer: 0.626 ± 0.019

Question: With PPLLPLCVPPPP as the sequence, how does the protein stability index read?
Answer: 0.71 ± 0.033

Question: With STVRFGAPDYVH as the sequence, how does the protein stability index read?
Answer: 0.6774 ± 0.0026

Question: YQCESDLFLVGV was tested. Which protein stability index did it give?
Answer: 0.642 ± 0.041

Question: With AYLGFYLLPYSS as the sequence, how does the protein stability index read?
Answer: 0.717 ± 0.13

Question: How did the protein stability index turn out when GWESERWSTLHK was run?
Answer: 0.763 ± 0.024

Question: For RDECLRVLAPLR, which protein stability index is on record?
Answer: 0.726 ± 0.024

Question: For IFPSIPTLLPPS, which protein stability index is on record?
Answer: 0.701 ± 0.041

Question: For TRCLPPPVPPSL, which protein stability index is on record?
Answer: 0.729 ± 0.014

Question: For PETIIENIMKRR, which protein stability index is on record?
Answer: 0.688 ± 0.22

Question: For GEGERVCVGSEF, which protein stability index is on record?
Answer: 0.745 ± 0.033

Question: For NRNKKTKKKVII, which protein stability index is on record?
Answer: 0.6697 ± 0.0062

Question: SPCSSDPLYSFA was tested. Which protein stability index did it give?
Answer: 0.762 ± 0.069

Question: For GGGLSGEGGLGR, which protein stability index is on record?
Answer: 0.639 ± 0.014

Question: How did the protein stability index turn out when GGVGGRGIGFPR was run?
Answer: 0.684 ± 0.055

Question: Which protein stability index does the source give for RPPHQAPPLPPS here?
Answer: 0.704 ± 0.062

Question: With FFGSFVFSLLFY as the sequence, how does the protein stability index read?
Answer: 0.6025 ± 0.0047

Question: With FPLHSSLSGPPC as the sequence, how does the protein stability index read?
Answer: 0.737 ± 0.0083

— the supplement of paper PMC10724198
